# Measured values from patent publication US20240010754A1 (JIANGSU HENGRUI MEDICINE, published 2024).
# Positions count from the first letter of the chain named. In names and notes the source's numbering stands.
# T1: human FAP (human, UniProt Q12884 1-760)
# T1 construct: whole, on cells; also called CHO/FAP; Flp-In CHO/FAP
# T1 sequence (looked up): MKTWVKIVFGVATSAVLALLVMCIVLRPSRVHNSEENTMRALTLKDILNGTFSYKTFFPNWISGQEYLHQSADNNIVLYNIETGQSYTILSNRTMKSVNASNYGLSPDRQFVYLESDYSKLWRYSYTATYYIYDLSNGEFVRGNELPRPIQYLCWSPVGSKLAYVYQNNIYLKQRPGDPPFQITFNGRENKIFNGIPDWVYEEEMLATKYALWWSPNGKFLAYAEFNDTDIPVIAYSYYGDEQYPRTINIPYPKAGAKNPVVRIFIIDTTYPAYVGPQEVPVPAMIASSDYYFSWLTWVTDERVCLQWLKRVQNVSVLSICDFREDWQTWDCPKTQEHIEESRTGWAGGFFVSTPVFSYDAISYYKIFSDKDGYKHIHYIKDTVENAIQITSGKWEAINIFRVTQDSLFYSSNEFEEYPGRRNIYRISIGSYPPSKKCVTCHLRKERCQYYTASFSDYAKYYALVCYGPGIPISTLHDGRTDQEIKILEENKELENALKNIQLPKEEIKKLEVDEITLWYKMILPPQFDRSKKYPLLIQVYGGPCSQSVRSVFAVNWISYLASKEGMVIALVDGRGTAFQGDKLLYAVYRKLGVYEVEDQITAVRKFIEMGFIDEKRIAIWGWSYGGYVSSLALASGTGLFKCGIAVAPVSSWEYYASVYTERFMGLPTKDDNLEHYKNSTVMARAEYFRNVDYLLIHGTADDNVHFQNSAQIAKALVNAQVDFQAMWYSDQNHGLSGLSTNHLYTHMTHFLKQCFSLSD
# B1: ERP2006-BS0015 (bispecific antibody)
# heavy: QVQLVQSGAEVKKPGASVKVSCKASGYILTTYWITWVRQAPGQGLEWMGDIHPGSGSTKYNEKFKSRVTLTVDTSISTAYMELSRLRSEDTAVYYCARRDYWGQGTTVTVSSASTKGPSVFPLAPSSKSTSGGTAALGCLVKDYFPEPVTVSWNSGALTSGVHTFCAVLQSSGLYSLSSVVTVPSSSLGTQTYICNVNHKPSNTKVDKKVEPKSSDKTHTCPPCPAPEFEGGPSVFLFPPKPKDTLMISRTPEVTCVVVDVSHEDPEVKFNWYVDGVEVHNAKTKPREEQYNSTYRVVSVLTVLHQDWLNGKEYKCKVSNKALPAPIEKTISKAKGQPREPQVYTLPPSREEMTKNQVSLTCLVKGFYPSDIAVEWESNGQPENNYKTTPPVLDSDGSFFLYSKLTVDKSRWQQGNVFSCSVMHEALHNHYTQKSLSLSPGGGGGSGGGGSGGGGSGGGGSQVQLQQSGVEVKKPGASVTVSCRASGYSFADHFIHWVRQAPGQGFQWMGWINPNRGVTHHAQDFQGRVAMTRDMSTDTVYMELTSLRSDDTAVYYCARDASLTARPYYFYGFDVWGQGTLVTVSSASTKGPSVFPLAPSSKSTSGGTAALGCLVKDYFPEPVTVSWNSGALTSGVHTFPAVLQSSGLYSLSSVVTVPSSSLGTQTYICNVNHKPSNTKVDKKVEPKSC
# light 1: DIVMTQSPLSLPVTPGEPASISCRSSQNIVNSQGNTYLEWYLQKPGQSPQLLIYKVTNRFSGVPDRFSGSGSGTDFTLKISRVEAEDVGVYYCFQASLVPWTFGGGTKVEIKGQPKAAPSVTLFPPSSEELQANKATLVCLISDFYPGAVTVAWKADSSPVKAGVETTTPCKQSNNKYAASSYLSLTPEQWKSHRSYSCQVTHEGSTVEKTVAPTESS
# light 2: DIQMTQSPSSVSASVGDRVTITCRASQGISSWLAWYQQKPGKAPKLLIYAASSLQSGVPSRFSGSGSGTDFTLTISSLQPEDFATYYCQQANSFPPAFGQGTKVEIKRTVAAPSVFIFPPSDEQLKSGTASVVCLLNNFYPREAKVQWKVDNALQSGNSQESVTEQDSKDSTYSLSSTLTLSKADYEKHKVYACEVTHQGLSSPVTKSFNRGEC
# notes: 2+2 symmetric bispecific: [CD40 VH-CH1]-Fc-linker-[FAP VH-CH1] heavy chain with two kinds of light chain; also called FAP×CD40 bispecific antibody
# B2: TJ030-PR1102 (bispecific antibody, human IgG1, kappa, L234A L235A)
# heavy 1: not shown
# light 1: DIVMTQTPLSLPVTPGEPASISCRSSQSLVHSTGNTYLEWYLQKPGQSPQLLIYKVSNRFSGVPDRFSGSGSGTDFTLKISRVEAEDVGVYYCFQGSHVPYTFGGGTKVEIKRTVAAPSVFIFPPSDEQLKSGTASVVCLLNNFYPREAKVQWKVDNALQSGNSQESVTEQDSKDSTYSLSSTLTLSKADYEKHKVYACEVTHQGLSSPVTKSFNRGEC
# heavy 2: not shown
# light 2: not shown
# notes: 1+1 asymmetric knob-into-hole bispecific IgG1; knob on the PD-1 arm, hole on the CTLA-4 arm; tested after polishing purification; also called PD-1×CTLA-4 bispecific antibody (F126C-S121C placed into the CTLA-4 arm)
# B3: ERP2006-BS0012 (bispecific antibody, human IgG1, kappa, lambda)
# heavy: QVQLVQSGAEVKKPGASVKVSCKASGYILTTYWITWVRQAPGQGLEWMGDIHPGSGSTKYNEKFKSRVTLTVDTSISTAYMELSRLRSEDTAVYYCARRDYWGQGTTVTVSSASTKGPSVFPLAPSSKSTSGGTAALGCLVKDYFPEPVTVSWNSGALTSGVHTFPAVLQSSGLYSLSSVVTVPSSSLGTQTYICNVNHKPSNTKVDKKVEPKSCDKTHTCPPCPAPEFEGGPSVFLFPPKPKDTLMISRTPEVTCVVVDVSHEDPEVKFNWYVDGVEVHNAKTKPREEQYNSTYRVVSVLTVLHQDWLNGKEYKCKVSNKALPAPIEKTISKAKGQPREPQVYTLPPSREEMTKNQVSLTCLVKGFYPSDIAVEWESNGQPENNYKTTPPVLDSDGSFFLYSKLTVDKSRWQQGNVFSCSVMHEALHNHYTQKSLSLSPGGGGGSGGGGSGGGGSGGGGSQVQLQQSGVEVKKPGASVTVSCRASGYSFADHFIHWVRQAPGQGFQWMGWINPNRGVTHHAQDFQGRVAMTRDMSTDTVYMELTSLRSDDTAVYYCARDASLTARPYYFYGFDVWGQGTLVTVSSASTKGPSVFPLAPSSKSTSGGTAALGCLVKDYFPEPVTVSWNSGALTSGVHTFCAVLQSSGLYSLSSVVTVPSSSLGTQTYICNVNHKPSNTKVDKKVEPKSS
# light 1: B2 light 1 with T7S, S28N, L29I, H31N, T33Q, S57T, G96A, H98L, Y101W
# light 2: DIQMTQSPSSVSASVGDRVTITCRASQGISSWLAWYQQKPGKAPKLLIYAASSLQSGVPSRFSGSGSGTDFTLTISSLQPEDFATYYCQQANSFPPAFGQGTKVEIKGQPKAAPSVTLFPPSSEELQANKATLVCLISDFYPGAVTVAWKADSSPVKAGVETTTPCKQSNNKYAASSYLSLTPEQWKSHRSYSCQVTHEGSTVEKTVAPTESS
# notes: as for B1
# B4: TJ030-PR1104 (bispecific antibody, human IgG1, kappa, L234A L235A)
# heavy 1: not shown
# light 1: B2 light 1
# heavy 2: not shown
# light 2: not shown
# notes: 1+1 asymmetric knob-into-hole bispecific IgG1; knob on the PD-1 arm, hole on the CTLA-4 arm; tested after polishing purification; also called PD-1×CTLA-4 bispecific antibody (F170C-T164C placed into the CTLA-4 arm)
# B5: TJ030-PR1108 (bispecific antibody, human IgG1, kappa, L234A L235A)
# heavy 1: not shown
# light 1: B2 light 1 with T169C, C219A
# heavy 2: not shown
# light 2: not shown
# notes: 1+1 asymmetric knob-into-hole bispecific IgG1; knob on the PD-1 arm, hole on the CTLA-4 arm; tested after polishing purification; also called PD-1×CTLA-4 bispecific antibody (F170C-T164C placed into the PD-1 arm)
# B6: TJ030-PR1106 (bispecific antibody, human IgG1, kappa, L234A L235A)
# heavy 1: not shown
# light 1: B2 light 1 with S126C, C219A
# heavy 2: not shown
# light 2: not shown
# notes: 1+1 asymmetric knob-into-hole bispecific IgG1; knob on the PD-1 arm, hole on the CTLA-4 arm; tested after polishing purification; also called PD-1×CTLA-4 bispecific antibody (F126C-S121C placed into the PD-1 arm)
# B7: parent FAP monoclonal antibody Ab10 (antibody, V domains shown)
# VH: QVQLQQSGVEVKKPGASVTVSCRASGYSFADHFIHWVRQAPGQGFQWMGWINPNRGVTHHAQDFQGRVAMTRDMSTDTVYMELTSLRSDDTAVYYCARDASLTARPYYFYGFDVWGQGTLVTVSS
# VL: DIQMTQSPSSVSASVGDRVTITCRASQGISSWLAWYQQKPGKAPKLLIYAASSLQSGVPSRFSGSGSGTDFTLTISSLQPEDFATYYCQQANSFPPAFGQGTKVEIK
# notes: also called AblO
# What was measured:
# [1] = biological target: T1, human FAP; assay: FACS binding to CHO/FAP cells
# Experimental: (§1) CHO cells stably expressing human FAP (i.e., CHO/FAP cells) and HEK293 cells 48 hours after transient transfection (i.e., HEK293/CD40 cells) in the logarithmic growth phase were collected by centrifugation, washed with PBS and then centrifuged. The cells were plated at 2E5 cells/100 μL/well and centrifuged at 400 g for 5 min Different concentrations of test antibody were added. The cells were incubated on ice for 1 h, washed with PBS and centrifuged at 400 g for 5 min The goat anti-human secondary antibody Alexa Fluor 488 with a fluorophore was added, and the cells were stained in an ice bath for 1 h, washed twice with PBS and then assayed on a flow cytometer.
# (§2) The bispecific antibodies ERP2006-BS0012 and ERP2006-BS0015 have similar affinity for FAP to the parent FAP monoclonal antibody AblO and similar affinity for CD40 to the parent CD40 monoclonal antibody 9E5-25.
# [2] = biological target: T2, human CD40 (human, UniProt P25942 21-277); assay: FACS binding to HEK293/CD40 cells
# T2 construct: whole, on cells; also called HEK293/CD40; HEK-Blue CD40L cell
# T2 sequence (P25942 21-277): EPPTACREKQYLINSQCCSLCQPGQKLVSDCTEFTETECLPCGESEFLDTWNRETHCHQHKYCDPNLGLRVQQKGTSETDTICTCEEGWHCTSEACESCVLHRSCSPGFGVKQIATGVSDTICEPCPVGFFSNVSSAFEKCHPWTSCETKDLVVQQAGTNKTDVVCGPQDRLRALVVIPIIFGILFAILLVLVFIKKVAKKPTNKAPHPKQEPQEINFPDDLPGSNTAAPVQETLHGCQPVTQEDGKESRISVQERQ
# Experimental: as §1, §2
# [3] = biological target: T3, human PD-1 (human, UniProt Q15116 25-288); assay: flow cytometry cell cross-linking (CHO-K1/PD-1 + HEK293/CTLA-4 cells), antibody at 100 nM
# T3 construct: whole, on cells; also called CHO-K1/PD-1
# T3 sequence (Q15116 25-288): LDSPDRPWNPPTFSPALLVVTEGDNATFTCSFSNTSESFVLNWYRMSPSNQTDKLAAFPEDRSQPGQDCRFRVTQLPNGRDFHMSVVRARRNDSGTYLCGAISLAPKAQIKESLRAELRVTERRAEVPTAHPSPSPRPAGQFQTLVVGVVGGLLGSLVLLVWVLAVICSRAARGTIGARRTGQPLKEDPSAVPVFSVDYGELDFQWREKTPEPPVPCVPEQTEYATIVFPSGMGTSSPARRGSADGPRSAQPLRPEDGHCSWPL
# Experimental: (§3) The ability of PD-1×CTLA-4 bispecific antibodies to co-bind to cells highly expressing human PD-1 and human CTLA-4 after polishing purification was determined by flow cytometry. First, HEK293 cells were transiently transfected with human CTLA-4 plasmids, and 24 h after the transfection, the HEK293 cells highly expressing CTLA-4 were labeled with Cell Trace Far red (Invitrogen, C34564), and the CHO-K1/PD-1 stably transfected strain was labeled with Cell Trace Violet (Invitrogen, C34557). The cells were added to a 96-well U-bottom plate (Costar, 3599) at 2E5 cells/well, and the test antibody was diluted to 100 nM, 10 nM, 1 nM, 0.1 nM and 0.01 nM and added to the 96-well U-bottom plate at 50 μL/well, making a total volume of 150 μL/well. The plate was incubated at 4° C. in a dark place for 1 h. The double-positive cell percentage of HEK293/CTLA-4 of CTLA-4 and CHO-K1/PD-1 was determined by flow cytometry.
# (§4) According to Example 1.4, the ability of each of the PD-1×CTLA-4 bispecific antibodies TJ030-PR1102 (F126C-S121C was placed into the CTLA-4 arm), TJ030-PR1104 (F170C-T164C was placed into the CTLA-4 arm), TJ030-PR1106 (F126C-S121C was placed into the PD-1 arm) and TJ030-PR1108 (F170C-T164C was placed into the PD-1 arm) to co-bind to cells highly expressing human PD-1 and human CTLA-4 after polishing purification was determined by flow cytometry, with CTLA-4 monoclonal antibody and IgG as negative controls. […] Such cross-linking of cells occurred in bispecific antibody molecule incubation only rather than monoclonal antibody or IgG1 incubation.
# [4] = biological target: T3, human PD-1; assay: flow cytometry cell cross-linking (CHO-K1/PD-1 + HEK293/CTLA-4 cells), antibody at 10 nM
# Experimental: as §3, §4
# [5] = biological target: T3, human PD-1; assay: flow cytometry cell cross-linking (CHO-K1/PD-1 + HEK293/CTLA-4 cells), antibody at 0.3 nM
# Experimental: as §3, with “The cells were added to a 96-well U-bottom plate (Costar, 3599) at 2E5 cells/well, and the test antibody was diluted to 100 nM, 10 nM, 1 nM, 0.1 nM and 0.01 nM and added to the 96-well U-bottom plate at 50 μL/well, making a total volume of 150 μL/well.” left out
# as §4
# [6] = biological target: T3, human PD-1; assay: flow cytometry cell cross-linking (CHO-K1/PD-1 + HEK293/CTLA-4 cells), antibody at 3 nM
# Experimental: as §3, §4
# [7] = biological target: T3, human PD-1; assay: flow cytometry cell cross-linking (CHO-K1/PD-1 + HEK293/CTLA-4 cells), antibody at 30 nM
# Experimental: as §3, §4
# [8] = biological target: T3, human PD-1; assay: flow cytometry cell cross-linking (CHO-K1/PD-1 + HEK293/CTLA-4 cells), antibody at 1 nM
# Experimental: as §3, §4
# [9] = biological target: T3, human PD-1; assay: flow cytometry cell cross-linking (CHO-K1/PD-1 + HEK293/CTLA-4 cells), antibody at 0.03 nM
# Experimental: as §3, with “The cells were added to a 96-well U-bottom plate (Costar, 3599) at 2E5 cells/well, and the test antibody was diluted to 100 nM, 10 nM, 1 nM, 0.1 nM and 0.01 nM and added to the 96-well U-bottom plate at 50 μL/well, making a total volume of 150 μL/well.” left out
# as §4
# [10] = biological target: T3, human PD-1; assay: flow cytometry cell cross-linking (CHO-K1/PD-1 + HEK293/CTLA-4 cells), antibody at 0.1 nM
# Experimental: as §3, §4
Binder,EC50 [1] [pM],EC50 [2] [pM],proportion of double-positive cells [3] [%],proportion of double-positive cells [4] [%],proportion of double-positive cells [5] [%],proportion of double-positive cells [6] [%],proportion of double-positive cells [7] [%],proportion of double-positive cells [8] [%],proportion of double-positive cells [9] [%],proportion of double-positive cells [10] [%],binding result [1]
B1,336,456,–,–,–,–,–,–,–,–,–
B2,–,–,22.2,32.4,20.7,32.2,26.7,25.1,8.87,11.8,–
B3,349,471,–,–,–,–,–,–,–,–,–
B4,–,–,25.4,34.8,25.3,35.8,32.1,30.5,10.4,18.2,–
B5,–,–,27.2,37.7,24.2,35.3,31.4,33.2,11.8,17,–
B6,–,–,23.9,38.1,26.3,37.4,33.1,34.7,10.9,19.1,–
B7,–,–,–,–,–,–,–,–,–,–,binds
